Tests used:
[1] = biological target: DEC-205 (antigen of the SPR measurement, form not stated) (UniProt O60449); test: SPR (CM5 chip coupled with anti-human secondary antibody; gradient 1000-62.5 nM)
[2] = biological target: T1, DEC-205分子 (human, on monocyte-derived human dendritic cells) (human, UniProt O60449 28-1722); test: flow cytometry on human monocyte-derived DC, FITC secondary antibody
T1 construct: whole, on cells; The assay itself used whole human DC
T1 sequence (O60449 28-1722): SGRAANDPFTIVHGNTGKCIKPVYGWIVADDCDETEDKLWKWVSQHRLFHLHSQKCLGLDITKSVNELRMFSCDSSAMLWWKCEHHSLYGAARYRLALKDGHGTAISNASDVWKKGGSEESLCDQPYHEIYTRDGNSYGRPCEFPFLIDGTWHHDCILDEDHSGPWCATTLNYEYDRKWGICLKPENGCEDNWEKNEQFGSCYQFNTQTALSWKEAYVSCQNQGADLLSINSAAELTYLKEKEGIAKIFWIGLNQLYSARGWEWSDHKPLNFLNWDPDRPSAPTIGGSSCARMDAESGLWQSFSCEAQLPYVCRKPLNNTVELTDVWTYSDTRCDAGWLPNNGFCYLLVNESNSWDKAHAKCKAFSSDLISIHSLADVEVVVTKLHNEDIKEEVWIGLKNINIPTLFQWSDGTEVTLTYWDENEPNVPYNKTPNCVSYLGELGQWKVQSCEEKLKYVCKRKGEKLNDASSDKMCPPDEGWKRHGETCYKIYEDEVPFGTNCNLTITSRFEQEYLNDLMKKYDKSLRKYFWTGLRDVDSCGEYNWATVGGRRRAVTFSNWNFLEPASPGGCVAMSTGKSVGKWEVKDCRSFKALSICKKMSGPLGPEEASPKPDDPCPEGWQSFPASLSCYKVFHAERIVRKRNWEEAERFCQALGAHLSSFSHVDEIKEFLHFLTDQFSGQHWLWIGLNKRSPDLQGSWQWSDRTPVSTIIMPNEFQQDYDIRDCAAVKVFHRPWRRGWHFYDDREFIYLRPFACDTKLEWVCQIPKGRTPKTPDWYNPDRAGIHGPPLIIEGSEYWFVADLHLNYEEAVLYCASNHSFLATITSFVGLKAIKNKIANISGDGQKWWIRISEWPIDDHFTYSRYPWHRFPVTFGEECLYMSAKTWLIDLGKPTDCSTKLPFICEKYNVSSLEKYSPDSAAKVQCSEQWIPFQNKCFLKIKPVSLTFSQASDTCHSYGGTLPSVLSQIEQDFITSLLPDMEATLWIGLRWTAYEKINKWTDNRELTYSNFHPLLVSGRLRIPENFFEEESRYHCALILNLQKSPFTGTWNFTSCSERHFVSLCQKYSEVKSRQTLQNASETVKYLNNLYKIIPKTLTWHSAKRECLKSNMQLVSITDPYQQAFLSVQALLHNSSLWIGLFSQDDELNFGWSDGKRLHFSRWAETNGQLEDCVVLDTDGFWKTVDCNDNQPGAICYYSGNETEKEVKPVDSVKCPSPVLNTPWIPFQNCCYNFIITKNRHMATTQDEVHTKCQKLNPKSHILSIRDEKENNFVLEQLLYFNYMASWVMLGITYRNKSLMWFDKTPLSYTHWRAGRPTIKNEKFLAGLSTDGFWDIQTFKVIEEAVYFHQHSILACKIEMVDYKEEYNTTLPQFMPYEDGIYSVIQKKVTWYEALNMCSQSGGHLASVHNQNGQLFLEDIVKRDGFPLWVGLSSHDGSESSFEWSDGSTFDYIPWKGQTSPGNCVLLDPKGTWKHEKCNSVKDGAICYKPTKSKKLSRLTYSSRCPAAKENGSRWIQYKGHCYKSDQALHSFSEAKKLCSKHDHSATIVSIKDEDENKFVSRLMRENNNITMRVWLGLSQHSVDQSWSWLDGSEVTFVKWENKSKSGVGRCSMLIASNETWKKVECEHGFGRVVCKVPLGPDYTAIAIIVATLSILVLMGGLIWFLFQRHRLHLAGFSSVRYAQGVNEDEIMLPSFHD

B1: 人源化的抗树突状细胞表面DEC-205分子的单克隆抗体 (antibody, V domains shown)
VH: EVQLVESGGGLVQPGRSLRLSCAASGFTFSHYYMAWVRQAPGKGLEWVAYISTDGGTTYYRDSVKGRFTISRDNAKSTLYLQMNSLRAEDTAVYYCTTGQPGYNLDYFDYWGQGTLVTVSS
VL: DIQMTQSPSSLSASVGDRVTITCQASQDIGYWLAWYQLKPGKSPQLLIYGATSLADGVPSRFSGSGSGTDYTLTISSLQPEDIATYYCQQASSVPWTFGGGTKLEIK
notes: FITC-labelled in the internalisation assay
[1]
  Kd: 16.7 nM
  koff: 0.000137 s⁻¹
  kon: 8220 M⁻¹ s⁻¹
[2]
  binding result: binds
